In the data set the target is T1, HPV16 E2Ct (E2 DNA binding domain) (Human papillomavirus type 16, UniProt P0DKA0 SEQ:1-87).
T1 chain: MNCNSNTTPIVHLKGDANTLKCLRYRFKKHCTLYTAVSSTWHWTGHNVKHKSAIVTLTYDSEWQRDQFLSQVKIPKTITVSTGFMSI
Description: EMSA; 10, 50, 250 nM protein; binds tightly; 20 mM HEPES pH 7.9, 25 mM KCl, poly[d(I-C)], 20 C; refolded E2Ct also binds (FIG. 7a). As to conditions: chain copies: 2 (stated, dimer); label: 32P 5' end. For orientation: In EMSA bound probe runs differently from free probe, usually more slowly.

B1: HPV16 E2 site 1, E2(1) (dsDNA)
DNA 1: TTGAACCGAAACCGGTTAGT
DNA 2: ACTAACCGGTTTCGGTTCAA
B1: the binding result was “binds”.

The values are drawn from patent publication US20030130184, “Methods of inducing cell death” (The University of Bristol, published 2003).
